By pKd is commonly meant the Kd on a negative log10 scale, so that one unit is a factor of ten. For orientation: koff means the rate constant with which the complex falls apart. Low readings indicate slow dissociation, high ones fast dissociation. Usually kon stands for the second-order rate constant of association.

This is an account of results in publication PMC8244301.

pKd: −log10 of the molar value.

Assay [1] has as its target Full-length L. rhamnosus GG SpaB (GG-SpaBFL) protein (residues 33-205) (Lactobacillus rhamnosus GG). As to the kind of experiment: BLI. Particulars: group.
The target in assay [2] is Truncated GG-SpaB (GG-SpaB_(C-trun)) protein (residues 31-184) (Lactobacillus rhamnosus GG). The assay is described as follows: BLI. Particulars: group.
The target in assay [3] is Full-length L. rhamnosus GG SpaB (GG-SpaBFL) protein (residues 33-205) (Lactobacillus rhamnosus GG). As to the kind of experiment: BLI; GG-SpaB protein (10 uM) immobilised on aminopropylsilane (APS) biosensors; mucin Type II (~19.5-312 nM) as analyte; PBS (10 mM sodium phosphate pH 7.4, 137 mM NaCl, 2.7 mM KCl), 30 C; ~600 s association, ~900 s dissociation; 1:1 binding fit; in duplicate.

Assay [4] deals with Truncated L. rhamnosus GG SpaB (GG-SpaBC-trun) protein (residues 31-184) (Lactobacillus rhamnosus GG). The assay is described as above.

Regarding porcine gastric mucin (Type II), the pKd was 9.52 in assay [1] and 8.59 in assay [2].
Take “porcine gastric mucin (Type II) (Sigma-Aldrich)”: in assay [3], the negative-log Kd (pKd) was 9.51, the koff was determined as 1.09e-05 s⁻¹ and the kon amounted to 35300 M⁻¹ s⁻¹. In assay [4], this substance gave a negative-log Kd (pKd) of 8.59, an off-rate (koff) of 6.86e-05 s⁻¹ and a kon of 26300 M⁻¹ s⁻¹.
